In publication PMC5037822, “Molecular and Biochemical Analysis of Two Rice Flavonoid 3’-Hydroxylase to Evaluate Their Roles in Flavonoid Biosynthesis in Rice Grain” (International Journal of Molecular Sciences, 2016):

T1: CYP75B4-JJJ (Oryza sativa, UniProt Q8LM92, E7V)
T1 construct: full length, 535 residues, natural allele with Val7, C-terminal V5 and 6xHis tags, yeast WAT11 cells with Arabidopsis reductase ATR1
T1 sequence (Q8LM92 1-535 E7V): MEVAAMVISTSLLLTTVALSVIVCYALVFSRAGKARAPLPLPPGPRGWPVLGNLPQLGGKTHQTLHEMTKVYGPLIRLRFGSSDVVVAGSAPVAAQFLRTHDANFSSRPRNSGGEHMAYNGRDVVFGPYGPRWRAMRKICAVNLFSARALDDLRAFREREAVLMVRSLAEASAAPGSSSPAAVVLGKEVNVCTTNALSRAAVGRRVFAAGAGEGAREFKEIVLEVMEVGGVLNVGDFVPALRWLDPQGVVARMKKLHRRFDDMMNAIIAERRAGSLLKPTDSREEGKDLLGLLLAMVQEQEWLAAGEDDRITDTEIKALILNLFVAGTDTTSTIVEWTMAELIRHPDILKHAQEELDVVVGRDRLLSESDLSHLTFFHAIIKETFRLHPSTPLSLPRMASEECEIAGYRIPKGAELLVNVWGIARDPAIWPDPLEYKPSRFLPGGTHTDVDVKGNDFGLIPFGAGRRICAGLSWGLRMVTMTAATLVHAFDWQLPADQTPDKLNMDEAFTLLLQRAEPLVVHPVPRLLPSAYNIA

T2: CYP75B4-HN (Oryza sativa, UniProt Q8LM92, H351Q)
T2 construct: full length, 535 residues, natural allele with Gln351, C-terminal V5 and 6xHis tags, yeast WAT11 cells with Arabidopsis reductase ATR1
T2 sequence (Q8LM92 1-535 H351Q): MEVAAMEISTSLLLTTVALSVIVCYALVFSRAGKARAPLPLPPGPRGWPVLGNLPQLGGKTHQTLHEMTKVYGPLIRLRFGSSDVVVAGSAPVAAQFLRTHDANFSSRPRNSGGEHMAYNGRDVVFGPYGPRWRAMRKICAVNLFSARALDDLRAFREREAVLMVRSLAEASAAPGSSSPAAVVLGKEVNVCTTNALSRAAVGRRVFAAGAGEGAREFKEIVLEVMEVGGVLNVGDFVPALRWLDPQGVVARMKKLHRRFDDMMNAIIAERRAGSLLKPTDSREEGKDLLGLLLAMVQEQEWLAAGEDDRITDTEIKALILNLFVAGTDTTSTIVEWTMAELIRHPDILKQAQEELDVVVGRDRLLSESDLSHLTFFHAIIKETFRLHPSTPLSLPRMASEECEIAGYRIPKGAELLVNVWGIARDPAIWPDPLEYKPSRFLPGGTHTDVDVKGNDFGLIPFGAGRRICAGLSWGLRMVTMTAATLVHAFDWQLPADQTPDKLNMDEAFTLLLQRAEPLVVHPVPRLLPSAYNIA


Key:
[1] = molecular target: T1, CYP75B4-JJJ; experiment: substrate feeding of induced yeast, HPLC of […]'-hydroxylated product; assay type: cell-based; details: 50 μM substrate, whole yeast WAT11 culture, 28 °C, 7.5 h
[2] = molecular target: T2, CYP75B4-HN; experiment: as above; assay type: cell-based; details: 50 μM substrate, whole yeast WAT11 culture, 28 °C, 7.5 h
[3] = substrate: O=C1c2c(O)cc(O)cc2OC(c2ccc(O)cc2)C1O; experiment: cells, lysate or membranes; assay type: biochemical, Oryza sativa; details: 1 mM NADPH, 100 mM Tris pH 7.5, 30 °C, racemic substrate
[4] = substrate: O=c1c(O)c(-c2ccc(O)cc2)oc2cc(O)cc(O)c12; experiment: cells, lysate or membranes; assay type: biochemical, Oryza sativa; details: 1 mM NADPH, 100 mM Tris pH 7.5, 30 °C
[5] = substrate: O=C1CC(c2ccc(O)cc2)Oc2cc(O)cc(O)c21; experiment: cells, lysate or membranes; details: 1 mM NADPH, 100 mM Tris pH 7.5, 30 °C, racemic substrate
[6] = substrate: O=c1cc(-c2ccc(O)cc2)oc2cc(O)cc(O)c12; experiment: cells, lysate or membranes; details: 1 mM NADPH, 100 mM Tris pH 7.5, 30 °C

Molecule	substrate feeding of induced yeast, HPLC of 3'-hydroxylated product [1]	substrate feeding of induced yeast, HPLC of 3'-hydroxylated product [2]	Km [3] [µM]	Vmax [3] [µM/min/mg]	Km [4] [µM]	Vmax [4] [µM/min/mg]	Km [5] [µM]	Vmax [5] [µM/min/mg]	Km [6] [µM]	Vmax [6] [µM/min/mg]
O=c1c(O)c(-c2ccc(O)cc2)oc2cc(O)cc(O)c12 [KAM, kaempferol]	CYP75B4-IM, CYP75B4-HN, and CYP75B4-JJJ metabolized naringenin, apigenin, and kaempferol	CYP75B4-IM, CYP75B4-HN, and CYP75B4-JJJ metabolized naringenin, apigenin, and kaempferol	–	–	–	–	–	–	–	–
O=c1cc(-c2ccc(O)cc2)oc2cc(O)cc(O)c12 [API, apigenin]	CYP75B4-IM, CYP75B4-HN, and CYP75B4-JJJ metabolized naringenin, apigenin, and kaempferol	CYP75B4-IM, CYP75B4-HN, and CYP75B4-JJJ metabolized naringenin, apigenin, and kaempferol	–	–	–	–	–	–	–	–
CYP75B3-IM (CYP75B3-JJJ) (Oryza sativa Japonica Group) (protein, full length, 526 residues, C-terminal V5 and 6xHis tags (pYES-DEST52), yeast WAT11 microsomes with Arabidopsis reductase ATR1) MDVVPLPLLLGSLAVSAAVWYLVYFLRGGSGGDAARKRRPLPPGPRGWPVLGNLPQLGDKPHHTMCALARQYGPLFRLRFGCAEVVVAASAPVAAQFLRGHDANFSNRPPNSGAEHVAYNYQDLVFAPYGARWRALRKLCALHLFSAKALDDLRAVREGEVALMVRNLARQQAASVALGQEANVCATNTLARATIGHRVFAVDGGEGAREFKEMVVELMQLAGVFNVGDFVPALRWLDPQGVVAKMKRLHRRYDNMMNGFINERKAGAQPDGVAAGEHGNDLLSVLLARMQEEQKLDGDGEKITETDIKALLLNLFTAGTDTTSSTVEWALAELIRHPDVLKEAQHELDTVVGRGRLVSESDLPRLPYLTAVIKETFRLHPSTPLSLPREAAEECEVDGYRIPKGATLLVNVWAIARDPTQWPDPLQYQPSRFLPGRMHADVDVKGADFGLIPFGAGRRICAGLSWGLRMVTLMTATLVHGFDWTLANGATPDKLNMEEAYGLTLQRAVPLMVQPVPRLLPSAYGV	–	–	2.494 ± 0.350	0.43	0.110 ± 0.008	0.24	0.286 ± 0.015	0.214	–	–
CYP75B3-HN (Oryza sativa Japonica Group; R27H) (protein, full length, 526 residues, natural allele with His27, C-terminal V5 and 6xHis tags, yeast WAT11 microsomes with Arabidopsis reductase ATR1) MDVVPLPLLLGSLAVSAAVWYLVYFLHGGSGGDAARKRRPLPPGPRGWPVLGNLPQLGDKPHHTMCALARQYGPLFRLRFGCAEVVVAASAPVAAQFLRGHDANFSNRPPNSGAEHVAYNYQDLVFAPYGARWRALRKLCALHLFSAKALDDLRAVREGEVALMVRNLARQQAASVALGQEANVCATNTLARATIGHRVFAVDGGEGAREFKEMVVELMQLAGVFNVGDFVPALRWLDPQGVVAKMKRLHRRYDNMMNGFINERKAGAQPDGVAAGEHGNDLLSVLLARMQEEQKLDGDGEKITETDIKALLLNLFTAGTDTTSSTVEWALAELIRHPDVLKEAQHELDTVVGRGRLVSESDLPRLPYLTAVIKETFRLHPSTPLSLPREAAEECEVDGYRIPKGATLLVNVWAIARDPTQWPDPLQYQPSRFLPGRMHADVDVKGADFGLIPFGAGRRICAGLSWGLRMVTLMTATLVHGFDWTLANGATPDKLNMEEAYGLTLQRAVPLMVQPVPRLLPSAYGV	–	–	1.034 ± 0.107	0.281	–	–	0.108 ± 0.009	0.193	–	–
CYP75B4-IM (Oryza sativa Japonica Group) (protein, full length, 535 residues, C-terminal V5 and 6xHis tags (pYES-DEST52), yeast WAT11 microsomes with Arabidopsis reductase ATR1) MEVAAMEISTSLLLTTVALSVIVCYALVFSRAGKARAPLPLPPGPRGWPVLGNLPQLGGKTHQTLHEMTKVYGPLIRLRFGSSDVVVAGSAPVAAQFLRTHDANFSSRPRNSGGEHMAYNGRDVVFGPYGPRWRAMRKICAVNLFSARALDDLRAFREREAVLMVRSLAEASAAPGSSSPAAVVLGKEVNVCTTNALSRAAVGRRVFAAGAGEGAREFKEIVLEVMEVGGVLNVGDFVPALRWLDPQGVVARMKKLHRRFDDMMNAIIAERRAGSLLKPTDSREEGKDLLGLLLAMVQEQEWLAAGEDDRITDTEIKALILNLFVAGTDTTSTIVEWTMAELIRHPDILKHAQEELDVVVGRDRLLSESDLSHLTFFHAIIKETFRLHPSTPLSLPRMASEECEIAGYRIPKGAELLVNVWGIARDPAIWPDPLEYKPSRFLPGGTHTDVDVKGNDFGLIPFGAGRRICAGLSWGLRMVTMTAATLVHAFDWQLPADQTPDKLNMDEAFTLLLQRAEPLVVHPVPRLLPSAYNIA	–	–	–	–	2.948 ± 0.330	0.007	–	–	0.240 ± 0.042	0.008
